These are literature values, as cited in patent publication US20230212279A1, “TREATMENT AND PREVENTION OF DISEASE CAUSED BY TYPE IV COLLAGEN DYSFUNCTION” (Singapore Health Services PTE, LTD., priority 2020, published 2023).

This data set addresses T1, IL-11Rα (Homo sapiens, UniProt Q14626).
T1 sequence (Q14626 23-422): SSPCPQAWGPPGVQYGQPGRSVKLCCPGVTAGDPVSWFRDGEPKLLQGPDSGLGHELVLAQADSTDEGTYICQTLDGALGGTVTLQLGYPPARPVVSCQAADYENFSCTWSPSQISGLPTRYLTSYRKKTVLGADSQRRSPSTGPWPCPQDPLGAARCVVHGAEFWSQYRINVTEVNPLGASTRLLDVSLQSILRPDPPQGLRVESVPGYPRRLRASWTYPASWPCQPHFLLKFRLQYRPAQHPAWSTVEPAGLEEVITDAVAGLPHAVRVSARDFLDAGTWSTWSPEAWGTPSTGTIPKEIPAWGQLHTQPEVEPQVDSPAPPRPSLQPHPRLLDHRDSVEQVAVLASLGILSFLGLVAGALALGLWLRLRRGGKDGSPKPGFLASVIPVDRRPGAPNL
As to conditions: IL-11 binding to IL-11Rα alone, low affinity; cited from earlier work.

B1: IL-11: pleiotropic cytokine, member of the IL-6 family of cytokines (protein)
chain: PGPPAGSPRVSSDPRADLDSAVLLTRSLLADTRQLAAQMRDKFPADGDHSLDSLPTLAMSAGTLGSLQLPGVLTRLRVDLMSYLRHVQWLRRAGGPSLKTLEPELGALQARLERLLRRLQLLMSRLALPQAAPDQPVIPLGPPASAWGSIRAAHAILGGLHLTLDWAVRGLLLLKTRL
For orientation: Kd means the free concentration of one partner at which half of the binding sites on the other are occupied at equilibrium, for simple one-to-one binding. Consider B1, for which the Kd is around 22 nM.
